Here are results for four molecules from PMC8809517, “Cofactor-independent RNA editing by a synthetic S-type PPR protein”.

Holding throughout (experiment): high-throughput RNA pulldown from lysate on Ni-NTA beads; HRP: 50 mM Tris pH 8, 150 mM NaCl, 1 mM beta-mercaptoethanol, 50 ug/ml BSA, 3 ug/ml yeast RNA, 0.5% heparin; ITC and FP: Tris pH 8, 200 mM KCl, 5% glycerol; MST: 50 mM Tris pH 8, 200 mM NaCl, 1 mM DTT, BSA, heparin, 0.05% Tween 20
Holding throughout (settings): tags: N-terminal His-eGFP

The target of data set [1] is T1, GFP-9S library array, motif 4 ND N98T;D124L (synthetic construct, N98T;D124L).
T1 chain: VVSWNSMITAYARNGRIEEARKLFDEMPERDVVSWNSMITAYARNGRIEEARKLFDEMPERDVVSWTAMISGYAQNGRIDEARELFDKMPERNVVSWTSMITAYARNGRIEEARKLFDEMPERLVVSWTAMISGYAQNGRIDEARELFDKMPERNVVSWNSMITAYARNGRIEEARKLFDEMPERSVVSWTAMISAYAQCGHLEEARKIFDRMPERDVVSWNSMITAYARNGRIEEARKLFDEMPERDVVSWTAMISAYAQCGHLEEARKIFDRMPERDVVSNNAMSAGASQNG

For data set [2], the target named is T2, GFP-9S library array, motif 4 ND D124F (synthetic construct, D124F).
T2 chain: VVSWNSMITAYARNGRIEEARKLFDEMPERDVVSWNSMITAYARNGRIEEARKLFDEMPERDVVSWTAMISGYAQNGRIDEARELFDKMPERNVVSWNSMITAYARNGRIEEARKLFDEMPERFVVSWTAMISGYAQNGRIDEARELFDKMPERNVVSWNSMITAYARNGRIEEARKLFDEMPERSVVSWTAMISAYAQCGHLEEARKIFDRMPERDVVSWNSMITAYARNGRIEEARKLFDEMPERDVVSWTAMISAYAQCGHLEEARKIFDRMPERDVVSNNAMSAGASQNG

In data set [3] the target is T3, GFP-9S library array, motif 4 ND N98M;D124E (synthetic construct, N98M;D124E).
T3 chain: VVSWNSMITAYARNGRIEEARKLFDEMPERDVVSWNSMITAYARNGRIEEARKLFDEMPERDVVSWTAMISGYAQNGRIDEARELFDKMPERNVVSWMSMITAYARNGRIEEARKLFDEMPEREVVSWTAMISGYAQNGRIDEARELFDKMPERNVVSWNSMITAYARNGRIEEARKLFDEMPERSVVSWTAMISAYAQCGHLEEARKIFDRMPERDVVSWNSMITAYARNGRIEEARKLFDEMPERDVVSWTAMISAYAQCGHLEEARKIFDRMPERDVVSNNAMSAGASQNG

Data set [4] has as its target T4, GFP-9S library array, motif 4 ND N98A;D124C (synthetic construct, N98A;D124C).
T4 chain: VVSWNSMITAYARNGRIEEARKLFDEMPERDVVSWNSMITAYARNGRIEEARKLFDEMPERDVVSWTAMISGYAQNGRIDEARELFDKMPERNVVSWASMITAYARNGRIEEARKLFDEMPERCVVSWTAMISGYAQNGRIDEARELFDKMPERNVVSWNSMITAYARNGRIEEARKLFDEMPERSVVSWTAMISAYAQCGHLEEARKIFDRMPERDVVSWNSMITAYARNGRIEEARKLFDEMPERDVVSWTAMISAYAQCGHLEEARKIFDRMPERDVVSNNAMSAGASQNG

Data set [5] deals with T5, GFP-9S library array, motif 4 ND N98T;D124A (synthetic construct, N98T;D124A).
T5 chain: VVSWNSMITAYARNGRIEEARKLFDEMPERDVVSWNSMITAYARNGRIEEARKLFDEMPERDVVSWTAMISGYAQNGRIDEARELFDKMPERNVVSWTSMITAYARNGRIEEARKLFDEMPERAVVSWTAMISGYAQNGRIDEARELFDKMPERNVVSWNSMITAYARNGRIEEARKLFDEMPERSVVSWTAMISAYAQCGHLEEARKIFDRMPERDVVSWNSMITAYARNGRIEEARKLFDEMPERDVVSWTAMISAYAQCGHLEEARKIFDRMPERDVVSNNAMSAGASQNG

Usually Kd stands for the equilibrium constant for the complex coming apart.

AUUACACGUGA (ssRNA) [Cy5-rpoA]: the Kd is 120 nM in data set [1] (label: 5' Cy5); 109 nM in data set [2] (label: 5' Cy5); 117 nM in data set [3] (label: 5' Cy5); 112 nM in data set [4] (label: 5' Cy5); 107 nM in data set [5] (label: 5' Cy5).
Regarding AUUAUACGUGA (ssRNA) [IR-rpoA-U], the Kd was found to be 174 nM in data set [1] (label: 5' IRDye 800CW); 63.9 nM in data set [2] (label: 5' IRDye 800CW); 158 nM in data set [3] (label: 5' IRDye 800CW); 92.2 nM in data set [4] (label: 5' IRDye 800CW); 173 nM in data set [5] (label: 5' IRDye 800CW).
For AUUAAACGUGA (ssRNA) [IR-rpoA-A], in that order: 169 nM, 202 nM, 264 nM, 163 nM and 52.8 nM.
AUUAGACGUGA (ssRNA) [Cy5-rpoA-G]: the Kd came to 120 nM in data set [1] (label: 5' Cy5); 140 nM in data set [2] (label: 5' Cy5); 89 nM in data set [3] (label: 5' Cy5); 73.1 nM in data set [4] (label: 5' Cy5); 70.1 nM in data set [5] (label: 5' Cy5).
